Kd data for 1 molecule are collected here from US20130079286A1 (Pieris, published 2013).

Assay [1] concerns the target T1, Trx-Aβ28 fusion protein (Escherichia coli (strain K12), UniProt P0AA25 1-76 = thioredoxin, Biotin-labelled through an NHS ester (2:1) in the capture and competitive ELISAs; unlabeled in the direct ELISA and as competitor.).
T1 construct: the entry may be a nucleic acid; also called TrxAbeta28H6
Put plainly: capture ELISA: mutein captured, biotinylated Trx-Aβ28 titrated. On the procedure: FIG. 5 depicts the binding activity of the Lcn2 muteins H1-G1, S1-A4, and US7 in capture ELISAs with different biotinylated Aβ targets. StrepMAB-Immo at 10 μg/ml was immobilized on microtitre plates and employed for capturing of 1 JAM Lcn2 muteins via the Strep-tag H. In figures A to C the binding of the Lcn2 muteins S1-A4 and US7 to (A) biotinylated Aβ40, (B) biotinylated Trx-Aβ28, and (C) biotinylated MBP-Aβ40 are shown. Binding was detected by incubation with ExtrAvidin/AP and a subsequent chromogenic reaction with pNPP. Ovalbumin (Ova), thioredoxin (Trx), and maltose binding protein (MBP) were used as negative controls. Additionally, binding of wild-type (wt) lipocalin was tested. The data were fitted to a monovalent binding model.
For selective capturing of the Lcn2 muteins carrying the C-terminal Strep-tag II (Schmidt and Skerra (2007) Nat. Protoc. 2, 1528-1535), a 96-well MaxiSorp polystyrene microtitre plate (Nunc, Langenselbold, Germany) was coated with 10 μg/mL StrepMAB-Immo (IBA, Göttingen, Germany) in PBS over night at 4° C. and blocked with 3% (w/v) BSA in PBS/T at room temperature for 1 h. After 3 washing steps with PBS/T, 50 μL of a 1 μM solution of the purified Lcn2 muteins from Example 7 were applied to all wells for 1 h. After washing, 50 μL of a dilution series of the biotinylated targets Aβ40, MBP-Aβ40 or Trx-Aβ28 from Example 2 were added and incubated for 1 h whereby the biotinylated forms of Ova, MBP and Trx from Example 2 served as negative control proteins. The wells were washed again and bound conjugate was detected with 50 μL of ExtrAvidin/AP conjugate (Sigma-Aldrich, Steinheim, Germany) diluted 1:5000 in PBS/T for 1 h, followed by signal development in the presence of 100 μL 0.5 mg/mL p-nitrophenyl phosphate (AppliChem, Darmstadt, Germany) in 100 mM Tris/HCl, pH 8.8, 100 mM NaCl, 5 mM MgCl₂.
In general terms: In an ELISA, binding on a coated surface is turned into a signal by an enzyme label.

Assay [2] addresses T1, Trx-Aβ28 fusion protein. Put plainly: direct ELISA: Trx-Aβ28 coated, mutein titrated, detected via Strep-tag II. The procedure:
The Aβ targets Trx-Aβ28 and MBP-Aβ40 as well as the control protein maltose binding protein (MBP) were immobilized at 2 μM in PBS over night. Bound Lcn2 muteins were detected via their Strep-tag II using Streptavidin/AP followed by a chromogenic reaction with pNPP. As a control, the binding of wild-type (wt) lipocalin was tested. The data were fitted to a monovalent binding model.
Alternatively, for a “direct” ELISA, 2 μM unlabeled Aβ40 target from Example 2 was adsorbed onto a 96-well MaxiSorp polystyrene microliter plate (Nunc, Langenselbold, Germany) and incubated with the purified Lcn2 mutein, which was detected via the Strep-tag II using a 1:1500 dilution of Streptavidin/AP conjugate (GE Healthcare UK Ltd, Buckinghamshire, UK). As a control, 2 μM MBP from Example 2 was adsorbed onto the ELISA plate. Absorption at 405 nm was measured in a SpectraMax 250 reader (Molecular Devices, Sunnyvale, USA).

B1: Lcn2 mutein S1-A4 (designed binder)
chain: QDSTSDLIPAPPLSKVPLQQNFQDNQFHGKWYVVGVAGNYTLREDKDPLKMYATIYELKEDKSYNVTSVGFRLKKCNYKIRTFVPGSQPGEFTLGIIKSQPGMTSYLVRVVSTNYNQHAMVFFKTVGQNREMFNITLYGRTKELTSELKENFIRFSKSLGLPENHIVFPVPIDQCIDG
Consider B1, for which the dissociation constant (Kd) (commonly a measure of binding affinity in units of concentration) with Trx-Aβ28 fusion protein [1] was 1.9 nM; in the assay with Trx-Aβ28 fusion protein [2] it was 16.2 nM.
